Experimental data published in paper PMC9956121.
Values belong to the substance of their own block, whether it stands above or below them.

Experiments:
[1] = molecular target: hTAPBPR^KRQ (R105K, K211R, R270Q), luminal domain, C94S (human); experiment: SPR; biotinylated hTAPBPR mutants immobilised on a streptavidin chip; Ac-6-FP-loaded MR1 C262S flowed over at 0-100 µM; 25°C; 150 mM NaCl, 20 mM sodium phosphate pH 7.4, 0.1% Tween 20; one site-specific binding fit
[2] = molecular target: hTAPBPR^RQ (K211R, R270Q), luminal domain, C94S (human); experiment: as above
[3] = molecular target: hTAPBPR^FLQ (S104F, K211L, R270Q), luminal domain, C94S (human); experiment: as above
[4] = molecular target: chicken TAPBPR, luminal domain (chicken (G. gallus)); experiment: SPR; biotinylated TAPBPR on a streptavidin chip; MR1 C262S injected at 0-100 μM; 25°C; 150 mM NaCl, 20 mM sodium phosphate pH 7.4, 0.1% Tween 20
[5] = molecular target: human TAPBPR (TAP binding protein, related), luminal domain (human); experiment: as above
[6] = molecular target: peptide-deficient (empty) HLA-A*01:01/hβ2m (human)
[7] = molecular target: peptide-deficient (empty) HLA-A*11:01/hβ2m (human)
[8] = molecular target: peptide-deficient (empty) HLA-A*24:02/hβ2m (human)
[9] = molecular target: HLA-A*02:06/hβ2m loaded with a placeholder peptide (human)
[10] = molecular target: peptide-loaded HLA-A*02:01/hβ2m (photolabile peptide KILGFVFJV) (human)
[11] = molecular target: peptide-deficient (empty) HLA-A*02:01/hβ2m (human)
[12] = molecular target: HLA-A*02:77/hβ2m loaded with a placeholder peptide (human)
[13] = molecular target: HLA-A*02:71/hβ2m loaded with a placeholder peptide (human)
[14] = molecular target: peptide-deficient (empty) HLA-B*37:01/hβ2m (human)
[15] = molecular target: peptide-deficient (empty) HLA-A*02:01/hβ2m (human); remark: listed apart in the source
[16] = molecular target: chicken TAPBPR, luminal domain (chicken (G. gallus)); experiment: SPR; biotinylated TAPBPR (about 1000 RU) on a streptavidin chip; HLA UV-irradiated 20 min at 365 nm just before injection at 0-20 μM; 25°C; 150 mM NaCl, 20 mM sodium phosphate pH 7.4, 0.1% Tween 20
[17] = molecular target: hTAPBPR^RQ (K211R and R270Q), soluble ectodomain (human); experiment: as above
[18] = molecular target: human TAPBPR (TAP binding protein, related), luminal domain (human); experiment: as above
[19] = molecular target: hTAPBPR^FLQ (S104F, K211L, and R270Q), soluble ectodomain (human); experiment: as above
[20] = molecular target: human TAPBPR (TAP binding protein, related), luminal domain (human); experiment: SPR; biotinylated TAPBPR (about 1000 RU) on a streptavidin chip; peptide-loaded HLA, not UV-irradiated, injected at 0-20 μM; 25°C; 150 mM NaCl, 20 mM sodium phosphate pH 7.4, 0.1% Tween 20
[21] = molecular target: hTAPBPR^KRQ (R105K, K211R, R270Q), luminal domain, C94S (human); experiment: SPR; biotinylated TAPBPR (about 1000 RU) immobilised on a streptavidin chip; peptide-loaded HLA (photolabile peptide, no UV) flowed over at 0-20 µM; 25°C; 150 mM NaCl, 20 mM sodium phosphate pH 7.4, 0.1% Tween 20; 30 µl/min, 60 s injection, 180 s dissociation; kinetic fit or one site-specific binding …
[22] = molecular target: hTAPBPR^RQ (K211R, R270Q), luminal domain, C94S (human); experiment: as above
[23] = molecular target: hTAPBPR^FLQ (S104F, K211L, R270Q), luminal domain, C94S (human); experiment: as above
[24] = molecular target: chicken TAPBPR, luminal domain (chicken (G. gallus)); experiment: SPR; biotinylated TAPBPR (about 1000 RU) on a streptavidin chip; peptide-loaded HLA, not UV-irradiated, injected at 0-20 μM; 25°C; 150 mM NaCl, 20 mM sodium phosphate pH 7.4, 0.1% Tween 20
[25] = molecular target: chicken TAPBPR, luminal domain (chicken (G. gallus)); experiment: ITC; 150 μM pHLA-B*08:01 in the syringe titrated into 5 μM chTAPBPR in the cell, both with 0.45 mM FLRGRAJGL; 150 mM NaCl, 20 mM sodium phosphate pH 7.2; one-site model; apparent KD

Kd [1]: 62000 nM | Kd [2]: 49500 nM | Kd [3]: 48000 nM
Substance: MR1 C262S loaded with acetyl-6-formylpterin (Ac-6-FP) (complex)

Kd [4]: 19200 nM | Kd [5]: 98700 nM
Substance: acetyl-6-formylpterin-loaded MR1 C262S/hβ2m (from UniProt P61769 21-119) (complex)

kapp of fluorescent peptide binding to HLA-A*01:01 with 5 μM TAPBPR (FP) [6]: 0.00017 s⁻¹ | overall exchange rate (FP), against hTAPBPR [7]: > 17 fold | overall exchange rate (FP), against hTAPBPR [8]: > 7 fold
Substance: chicken TAPBPR, luminal domain (domain or fragment)

Kd [16]: 1680 nM | Kd [18]: 2540 nM
Substance: peptide-deficient (empty) HLA-A*24:02/hβ2m (from UniProt P61769 21-119) (complex)

Kd [16]: 290 nM | Kd [18]: 260 nM
Substance: peptide-deficient (empty) HLA-A*29:02/hβ2m (from UniProt P61769 21-119) (complex)

Kd [16]: 1280 nM | Kd [18]: 990 nM
Substance: peptide-deficient (empty) HLA-A*30:01/hβ2m (from UniProt P61769 21-119) (complex)

Kd [16]: 430 nM | Kd [18]: 120 nM
Substance: peptide-deficient (empty) HLA-A*68:02/hβ2m (from UniProt P61769 21-119) (complex)

Kd [16]: 2190 nM | Kd [18]: 7020 nM
Substance: peptide-deficient (empty) HLA-B*37:01/hβ2m (from UniProt P61769 21-119) (complex)

Kd [16]: 11200 nM
Substance: peptide-deficient (empty) HLA-G*01:01/hβ2m (from UniProt P61769 21-119) (complex)

Kd [20]: 9440 nM
Substance: peptide-loaded HLA-A*02:01/hβ2m (photolabile peptide KILGFVFJV) (from UniProt P61769 21-119) (peptide-MHC)

Kd [21]: 1380 nM | Kd [22]: 1310 nM | Kd [23]: 1260 nM
Substance: peptide-loaded HLA-A*02:01/hβ2m/KILGFVFJV (from UniProt P61769 21-119) (peptide-MHC)

Kd [24]: 17400 nM | Kd [20]: 10900 nM
Substance: peptide-loaded HLA-A*24:02/hβ2m (photolabile peptide VYGJVRACL) (from UniProt P61769 21-119) (peptide-MHC)

Kd [24]: 170 nM | Kd [20]: 190 nM
Substance: peptide-loaded HLA-A*29:02/hβ2m (photolabile peptide) (from UniProt P61769 21-119) (peptide-MHC)

Kd [20]: 950 nM
Substance: peptide-loaded HLA-A*30:01/hβ2m (photolabile peptide) (from UniProt P61769 21-119) (peptide-MHC)

Kd [25]: 4600 nM | Kd [24]: 3190 nM
Substance: peptide-loaded HLA-B*08:01/hβ2m (photolabile peptide FLRGRAJGL) (from UniProt P61769 21-119) (peptide-MHC)

Second part, the substance before the results:

Substance: hTAPBPR^FLQ (S104F, K211L, and R270Q), soluble ectodomain (domain or fragment)
k2overall of peptide exchange (FP), against hTAPBPR [9]: 14 fold | k2overall of exchange of KILGFVFβFV-loaded HLA-A*02:01 with TAMRA-[…] (FP), against hTAPBPR [10]: 90 fold | kapp of fluorescent peptide binding to HLA-A*01:01 with 5 μM TAPBPR (FP) [6]: 7e-05 s⁻¹

Substance: hTAPBPR^KRQ (R105K, K211R, and R270Q), soluble ectodomain (domain or fragment)
k2overall of peptide exchange (FP), against hTAPBPR [9]: 9 fold | k2overall of exchange of KILGFVFβFV-loaded HLA-A*02:01 with TAMRA-[…] (FP), against hTAPBPR [10]: 60 fold | kapp of fluorescent peptide binding to HLA-A*01:01 with 5 μM TAPBPR (FP) [6]: 0.00013 s⁻¹

Substance: hTAPBPR^RQ (K211R and R270Q), soluble ectodomain (domain or fragment)
k2overall of peptide exchange (FP), against hTAPBPR [9]: 9 fold | k2overall of exchange of KILGFVFβFV-loaded HLA-A*02:01 with TAMRA-[…] (FP), against hTAPBPR [10]: 60 fold | kapp of fluorescent peptide binding to HLA-A*01:01 with 5 μM TAPBPR (FP) [6]: 0.00014 s⁻¹

Substance: human TAPBPR (TAP binding protein, related), luminal domain (domain or fragment)
k2overall of peptide exchange (FP) [11]: 1160 M⁻¹ s⁻¹ | k2overall of peptide exchange (FP) [12]: 17200 M⁻¹ s⁻¹ | k2overall of peptide exchange (FP) [13]: 335 M⁻¹ s⁻¹ | k2overall of peptide exchange (FP), against chTAPBPR [14]: 5 fold lower | k2overall of peptide exchange (FP), against chTAPBPR [15]: 8 fold

Substance: peptide-deficient (empty) HLA-A*01:01/hβ2m (from UniProt P61769 21-119) (complex)
Kd [16]: 1460 nM

Substance: peptide-deficient (empty) HLA-A*02:01/hβ2m (from UniProt P61769 21-119) (complex)
Kd [16]: 2960 nM | Kd [17]: 188 nM | Kd [18]: 170 nM | Kd [19]: 81 nM

Substance: peptide-deficient (empty) HLA-A*11:01/hβ2m (from UniProt P61769 21-119) (complex)
Kd [16]: 910 nM | Kd [18]: 2040 nM

Substance: peptide-deficient (empty) HLA-B*08:01/hβ2m (from UniProt P61769 21-119) (complex)
Kd [16]: 1890 nM

Substance: peptide-deficient (empty) HLA-E*01:03/hβ2m (from UniProt P61769 21-119) (complex)
Kd [18]: 1510 nM

Substance: peptide-loaded HLA-A*68:02/hβ2m (photolabile peptide) (from UniProt P61769 21-119) (peptide-MHC)
Kd [24]: 560 nM | Kd [20]: 220 nM
